# Tests used:
# [1] = target: Plasmodium falciparum actin I (unlabeled) (Plasmodium falciparum) (UniProt Q8I4X0); test: co-sedimentation; pelleting assay: unlabeled actin polymerized overnight at 22 °C in F-buffer (50 mM KCl, 4 mM MgCl2, 1 mM EGTA), ultracentrifugation at 434,500 g or 100,000 g, 20 °C, 1 h; supernatant and pellet by SDS-PAGE densitometry; also at different actin concentrations
# [2] = target: Plasmodium falciparum actin I (unlabeled) (Plasmodium falciparum) (UniProt Q8I4X0); test: native gel or EMSA; native PAGE of 25 µM polymerized PfActI with and without ultracentrifugation at 434,500 g; running buffer with sample-matched ATP:ADP ratio and 0.1 mM MgCl2; SYPRO Orange, densitometry
# [3] = target: Plasmodium falciparum actin I, pyrene-labeled (Plasmodium falciparum) (UniProt Q8I4X0); test: other fluorescence titration; steady-state critical concentration in F-buffer: pyrene-labeled actin polymerized, diluted to a series of concentrations up to 5 µM, 16 h at 20 °C (methods: overnight at 22 °C); two-line fit of pyrene fluorescence
# [4] = target: Plasmodium falciparum actin I, pyrene-labeled (Plasmodium falciparum) (UniProt Q8I4X0); test: dilution-induced depolymerization (pyrene fluorescence); 30% pyrene-labeled actins, 5 µM polymerized overnight, diluted 100-fold to 50 nM in F-buffer; single-phase exponential decay fit
# [5] = target: Plasmodium falciparum actin I, pyrene-labeled (Plasmodium falciparum) (UniProt Q8I4X0); test: other fluorescence titration; steady-state critical concentration in classical non-polymerizing buffer (G-buffer): pyrene-labeled PfActI, 16 h at 20 °C; two-line fit of pyrene fluorescence
Substance,"% of total protein in the pellet (100,000 g) [1] [%]","% of total protein in the pellet (434,500 g) [1] [%]",% of total band intensity as dimers [2] [%],% of total band intensity as polymers [2] [%],monomer concentration left at steady state (from the monomer band) [2] [µM],stoichiometry N [2],"Cc (critical concentration, F-buffer, the experiment shown) [3] [µM]","Cc (critical concentration, steady state, F-buffer) [3] [µM]",apparent rate constant of depolymerization (single-phase decay) [4] [s⁻¹],depolymerization rate constant adjusted by filament concentration (100 nm filament length assumed) [4] [s⁻¹],half-time of depolymerization [4] [s],"Cc (critical concentration, G-buffer, the experiment shown) [5] [µM]","Cc (critical concentration, steady state, G-buffer) [5] [µM]"
Plasmodium falciparum actin I (unlabeled) (from UniProt Q8I4X0 1-376) (natural protein),60,70,56.2,43.4,0.11,2,,,,,,,
"Plasmodium falciparum actin I, pyrene-labeled (from UniProt Q8I4X0 1-376) (natural protein)",,,,,,,0.13,0.11,0.0093,0.4,74,0.04,0.06

# Reference: PMC5610305
